Measured values taken from article PMC11381544 (Nature Communications, 2024).

B1: human prolyl 3-hydroxylase 1 (P3H1) (enzyme, UniProt Q32P28-1 23-736, looked up)
chain: EVESEAGWGMVTPDLLFAEGTAAYARGDWPGVVLSMERALRSRAALRALRLRCRTQCAADFPWELDPDWSPSPAQASGAAALRDLSFFGGLLRRAACLRRCLGPPAAHSLSEEMELEFRKRSPYNYLQVAYFKINKLEKAVAAAHTFFVGNPEHMEMQQNLDYYQTMSGVKEADFKDLETQPHMQEFRLGVRLYSEEQPQEAVPHLEAALQEYFVAYEECRALCEGPYDYDGYNYLEYNADLFQAITDHYIQVLNCKQNCVTELASHPSREKPFEDFLPSHYNYLQFAYYNIGNYTQAVECAKTYLLFFPNDEVMNQNLAYYAAMLGEEHTRSIGPRESAKEYRQRSLLEKELLFFAYDVFGIPFVDPDSWTPEEVIPKRLQEKQKSERETAVRISQEIGNLMKEIETLVEEKTKESLDVSRLTREGGPLLYEGISLTMNSKLLNGSQRVVMDGVISDHECQELQRLTNVAATSGDGYRGQTSPHTPNEKFYGVTVFKALKLGQEGKVPLQSAHLYYNVTEKVRRIMESYFRLDTPLYFSYSHLVCRTAIEEVQAERKDDSHPVHVDNCILNAETLVCVKEPPAYTFRDYSAILYLNGDFDGGNFYFTELDAKTVTAEVQPQCGRAVGFSSGTENPHGVKAVTRGQRCAIALWFTLDPRHSERDRVQADDLVKMLFSPEEMDLSQEQPLDAQQGPPEPAQESLSGSESKPKDEL
B3: human cartilage-associated protein (CRTAP), strep-tagged (natural protein, UniProt O75718 27-401, looked up)
chain: QYERYSFRSFPRDELMPLESAYRHALDKYSGEHWAESVGYLEISLRLHRLLRDSEAFCHRNCSAAPQPEPAAGLASYPELRLFGGLLRRAHCLKRCKQGLPAFRQSQPSREVLADFQRREPYKFLQFAYFKANNLPKAIAAAHTFLLKHPDDEMMKRNMAYYKSLPGAEDYIKDLETKSYESLFIRAVRAYNGENWRTSITDMELALPDFFKAFYECLAACEGSREIKDFKDFYLSIADHYVEVLECKIQCEENLTPVIGGYPVEKFVATMYHYLQFAYYKLNDLKNAAPCAVSYLLFDQNDKVMQQNLVYYQYHRDTWGLSDEHFQPRPEAVQFFNVTTLQKELYDFAKENIMDDDEGEVVEYVDDLLELEETS

Experiments:
[1] = biological target: B3; assay: cryo-EM structure
SEC = biological target: the molecule itself; assay: SEC
[2] = biological target: B1; assay: cryo-EM structure

B1
stoichiometry N [1]: 1

B2: PCP complex with mutation W675L of P3H1 (complex)
chain 1: EVESEAGWGMVTPDLLFAEGTAAYARGDWPGVVLSMERALRSRAALRALRLRCRTQCAADFPWELDPDWSPSPAQASGAAALRDLSFFGGLLRRAACLRRCLGPPAAHSLSEEMELEFRKRSPYNYLQVAYFKINKLEKAVAAAHTFFVGNPEHMEMQQNLDYYQTMSGVKEADFKDLETQPHMQEFRLGVRLYSEEQPQEAVPHLEAALQEYFVAYEECRALCEGPYDYDGYNYLEYNADLFQAITDHYIQVLNCKQNCVTELASHPSREKPFEDFLPSHYNYLQFAYYNIGNYTQAVECAKTYLLFFPNDEVMNQNLAYYAAMLGEEHTRSIGPRESAKEYRQRSLLEKELLFFAYDVFGIPFVDPDSWTPEEVIPKRLQEKQKSERETAVRISQEIGNLMKEIETLVEEKTKESLDVSRLTREGGPLLYEGISLTMNSKLLNGSQRVVMDGVISDHECQELQRLTNVAATSGDGYRGQTSPHTPNEKFYGVTVFKALKLGQEGKVPLQSAHLYYNVTEKVRRIMESYFRLDTPLYFSYSHLVCRTAIEEVQAERKDDSHPVHVDNCILNAETLVCVKEPPAYTFRDYSAILYLNGDFDGGNFYFTELDAKTVTAEVQPQCGRAVGFSSGTENPHGVKAVTRGQRCAIALLFTLDPRHSERDRVQADDLVKMLFSPEEMDLSQEQPLDAQQGPPEPAQESLSGSESKPKDEL
chain 2: QYERYSFRSFPRDELMPLESAYRHALDKYSGEHWAESVGYLEISLRLHRLLRDSEAFCHRNCSAAPQPEPAAGLASYPELRLFGGLLRRAHCLKRCKQGLPAFRQSQPSREVLADFQRREPYKFLQFAYFKANNLPKAIAAAHTFLLKHPDDEMMKRNMAYYKSLPGAEDYIKDLETKSYESLFIRAVRAYNGENWRTSITDMELALPDFFKAFYECLAACEGSREIKDFKDFYLSIADHYVEVLECKIQCEENLTPVIGGYPVEKFVATMYHYLQFAYYKLNDLKNAAPCAVSYLLFDQNDKVMQQNLVYYQYHRDTWGLSDEHFQPRPEAVQFFNVTTLQKELYDFAKENIMDDDEGEVVEYVDDLLELEETS
chain 3: not shown
binding result (SEC): binds

B3
binding result [2]: binds

B4: human peptidyl-prolyl cis-trans isomerase B (PPIB), flag-tagged (enzyme)
chain: not shown
stoichiometry N [1]: 1
stoichiometry N [2]: 1
